Targets include MAST2, Q6P0Q8; FRMPD2_1, Q68DX3; SCRIB_1, Q14160; DLG1_3, Q12959; Inadl_6, Q8NI35; GRIP2_6, Q9C0E4; MAGI2_5, Q86UL8; GORASP1, Q9BQQ3; GIPC2, Q8TF65; CASK, O14936; Inadl_1, Q8NI35.
Holding throughout (assay): holdup assay
What all share (parameters): key: below the threshold = too weak to quantify, mostly under pKd 3.1 to 4
Holding throughout (settings): plain residues with an end cap or a label only (N-terminal biotin on a linker: ttds)

A further assay addresses T1, SNTB1, Q13884.
T1 sequence (Q13884 107-205, limits assumed, looked up): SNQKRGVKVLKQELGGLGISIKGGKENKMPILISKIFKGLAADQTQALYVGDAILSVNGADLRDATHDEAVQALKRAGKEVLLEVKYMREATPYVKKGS

A further assay concerns the target T2, HTRA3, P83110.
T2 sequence (P83110 354-453, limits assumed, looked up): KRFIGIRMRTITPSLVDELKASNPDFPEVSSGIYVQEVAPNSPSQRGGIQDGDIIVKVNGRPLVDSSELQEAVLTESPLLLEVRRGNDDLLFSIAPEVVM

Another assay addresses T3, LIN7B, Q9HAP6.
T3 sequence (Q9HAP6 88-185, limits assumed, looked up): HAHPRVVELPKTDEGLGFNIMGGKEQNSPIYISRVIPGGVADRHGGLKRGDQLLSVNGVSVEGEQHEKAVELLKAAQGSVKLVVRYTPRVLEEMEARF

For a further assay, the target named is T4, MPP7, Q5T2T1.
T4 sequence (Q5T2T1 134-230, limits assumed, looked up): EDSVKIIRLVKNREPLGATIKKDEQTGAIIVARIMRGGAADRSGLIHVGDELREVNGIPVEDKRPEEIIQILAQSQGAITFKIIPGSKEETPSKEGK

The next assay addresses T5, GRIP1_5, Q9Y3R0.
T5 sequence (Q9Y3R0 568-668, limits assumed, looked up): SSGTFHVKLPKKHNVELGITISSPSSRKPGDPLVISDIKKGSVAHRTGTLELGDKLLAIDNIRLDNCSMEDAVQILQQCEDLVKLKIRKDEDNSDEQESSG

In a further assay the target is T6, DFNB31_1, Q9P202.
T6 sequence (Q9P202 135-233, limits assumed, looked up): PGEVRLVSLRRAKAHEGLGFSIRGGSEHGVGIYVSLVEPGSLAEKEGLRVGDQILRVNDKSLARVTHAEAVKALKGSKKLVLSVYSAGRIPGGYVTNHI

A further assay has as its target T7, TX1BP3, O14907.
T7 sequence (O14907 10-122, limits assumed, looked up): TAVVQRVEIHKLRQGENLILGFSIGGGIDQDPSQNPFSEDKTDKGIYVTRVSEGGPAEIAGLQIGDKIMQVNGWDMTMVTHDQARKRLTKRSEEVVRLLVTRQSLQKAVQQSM

In a further assay the target is T8, PDZRN3_1, Q9UPQ7.
T8 sequence (Q9UPQ7 244-349, limits assumed, looked up): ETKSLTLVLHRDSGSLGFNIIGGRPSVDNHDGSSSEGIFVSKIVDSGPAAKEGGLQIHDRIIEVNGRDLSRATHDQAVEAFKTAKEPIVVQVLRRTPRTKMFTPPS

Another assay concerns the target T9, DFNB31_3, Q9P202.
T9 sequence (Q9P202 811-907, limits assumed, looked up): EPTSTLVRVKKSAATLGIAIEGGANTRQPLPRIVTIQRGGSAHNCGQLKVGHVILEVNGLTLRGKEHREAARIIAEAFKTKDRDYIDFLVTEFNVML

A further assay addresses T10, RAPGEF6, Q8TEU7.
T10 sequence (Q8TEU7 525-625, limits assumed, looked up): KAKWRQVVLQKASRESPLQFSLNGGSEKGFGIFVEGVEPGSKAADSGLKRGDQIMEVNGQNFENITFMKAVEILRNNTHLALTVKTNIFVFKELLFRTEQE

In another assay the target is T11, GRIP1_4, Q9Y3R0.
T11 sequence (Q9Y3R0 467-571, limits assumed, looked up): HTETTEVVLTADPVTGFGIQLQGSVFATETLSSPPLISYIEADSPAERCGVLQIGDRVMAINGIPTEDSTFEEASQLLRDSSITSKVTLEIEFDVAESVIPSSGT

A further assay has as its target T12, APBA2_1, Q99767.
T12 sequence (Q99767 563-664, limits assumed, looked up): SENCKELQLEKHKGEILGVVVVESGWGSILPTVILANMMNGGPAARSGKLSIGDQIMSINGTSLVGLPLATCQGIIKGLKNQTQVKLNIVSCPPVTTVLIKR

For a further assay, the target named is T13, ARHGEF11, O15085.
T13 sequence (O15085 42-136, limits assumed, looked up): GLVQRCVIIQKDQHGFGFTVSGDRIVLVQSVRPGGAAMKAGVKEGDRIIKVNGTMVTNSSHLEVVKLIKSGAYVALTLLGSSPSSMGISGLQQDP

Sequence of Inadl_6, Q8NI35 (Q8NI35 1058-1167): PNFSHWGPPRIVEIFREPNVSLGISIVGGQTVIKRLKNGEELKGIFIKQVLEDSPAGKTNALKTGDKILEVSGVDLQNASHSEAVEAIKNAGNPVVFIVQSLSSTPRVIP
Sequence of MAST2, Q6P0Q8 (Q6P0Q8 1099-1202): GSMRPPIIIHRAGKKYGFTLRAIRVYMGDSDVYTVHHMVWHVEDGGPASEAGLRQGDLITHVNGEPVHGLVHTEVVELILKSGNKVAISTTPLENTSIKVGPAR
Sequence of FRMPD2_1, Q68DX3 (Q68DX3 770-861): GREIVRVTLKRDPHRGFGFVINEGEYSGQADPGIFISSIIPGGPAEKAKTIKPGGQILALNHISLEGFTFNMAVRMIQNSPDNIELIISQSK
Sequence of GRIP2_6, Q9C0E4 (Q9C0E4 648-740): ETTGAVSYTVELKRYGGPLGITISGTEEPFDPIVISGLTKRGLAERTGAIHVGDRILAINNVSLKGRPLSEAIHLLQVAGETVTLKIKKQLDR
Sequence of GIPC2, Q8TF65 (Q8TF65 112-203): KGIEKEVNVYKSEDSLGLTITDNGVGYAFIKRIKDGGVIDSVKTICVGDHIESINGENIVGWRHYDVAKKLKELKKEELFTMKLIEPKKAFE
Sequence of SCRIB_1, Q14160 (Q14160 718-814): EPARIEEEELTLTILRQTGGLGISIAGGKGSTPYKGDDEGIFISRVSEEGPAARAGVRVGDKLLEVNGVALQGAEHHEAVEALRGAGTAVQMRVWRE
Sequence of MAGI2_5, Q86UL8 (Q86UL8 915-1017): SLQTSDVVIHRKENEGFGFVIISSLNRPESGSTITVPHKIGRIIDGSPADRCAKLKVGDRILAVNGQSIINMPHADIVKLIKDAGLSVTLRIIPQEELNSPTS
Sequence of CASK, O14936 (O14936 487-570): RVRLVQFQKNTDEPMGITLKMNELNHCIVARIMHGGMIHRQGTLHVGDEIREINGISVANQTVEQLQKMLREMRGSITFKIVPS
Sequence of Inadl_1, Q8NI35 (Q8NI35 113-229): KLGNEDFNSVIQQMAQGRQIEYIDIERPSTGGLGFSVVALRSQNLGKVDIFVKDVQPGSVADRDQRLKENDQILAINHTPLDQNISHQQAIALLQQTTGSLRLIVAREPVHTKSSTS
Sequence of GORASP1, Q9BQQ3 (Q9BQQ3 1-208): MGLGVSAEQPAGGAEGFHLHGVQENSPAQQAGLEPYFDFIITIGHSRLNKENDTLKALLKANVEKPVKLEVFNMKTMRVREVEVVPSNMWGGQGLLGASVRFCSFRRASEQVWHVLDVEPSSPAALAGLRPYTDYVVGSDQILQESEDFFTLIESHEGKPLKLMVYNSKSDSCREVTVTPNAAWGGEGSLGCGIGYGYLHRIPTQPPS
Sequence of DLG1_3, Q12959 (Q12959 457-571): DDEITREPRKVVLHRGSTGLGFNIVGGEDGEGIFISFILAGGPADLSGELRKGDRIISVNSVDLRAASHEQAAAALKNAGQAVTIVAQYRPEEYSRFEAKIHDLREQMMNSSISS

The term pKd denotes the negative decadic logarithm of the Kd, by convention in mol/L. As to KLVIKTETTV [RASSF6, Q6ZTQ3], the pKd in the assay with SNTB1, Q13884 is 4.14; in the assay with MAST2, Q6P0Q8 it was 5.13; with HTRA3, P83110, “below the threshold”; with FRMPD2_1, Q68DX3, “below the threshold”; with SCRIB_1, Q14160 it was 3.9; with LIN7B, Q9HAP6, 3.81. Further, the pKd entry was “below the threshold” with MPP7, Q5T2T1; 4.2 with DLG1_3, Q12959; “below the threshold” with GRIP1_5, Q9Y3R0; “below the threshold” with Inadl_6, Q8NI35; “below the threshold” in the assay with DFNB31_1, Q9P202; “below the threshold” in the assay with GRIP2_6, Q9C0E4. Also, the negative logarithm of the Kd (pKd) is 3.77 with MAGI2_5, Q86UL8; 3.72 with TX1BP3, O14907; “below the threshold” with GORASP1, Q9BQQ3; “below the threshold” with GIPC2, Q8TF65; 3.82 with PDZRN3_1, Q9UPQ7; “below the threshold” with DFNB31_3, Q9P202. Moreover, the pKd with RAPGEF6, Q8TEU7 is 3.46; in the assay with GRIP1_4, Q9Y3R0 it was “below the threshold”; with APBA2_1, Q99767 it was “below the threshold”; with CASK, O14936, “below the threshold”; with ARHGEF11, O15085, 3.91; with Inadl_1, Q8NI35, “below the threshold”.

PFRSRSPSEV [GPR6, P46095]: the negative-log Kd (pKd) result is “below the threshold” with SNTB1, Q13884; “below the threshold” with MAST2, Q6P0Q8; “below the threshold” with HTRA3, P83110; “below the threshold” in the assay with FRMPD2_1, Q68DX3; “below the threshold” with SCRIB_1, Q14160; “below the threshold” with LIN7B, Q9HAP6. The pKd entry in the assay with MPP7, Q5T2T1 was “below the threshold”; in the assay with DLG1_3, Q12959, 3.81; with GRIP1_5, Q9Y3R0, “below the threshold”; with Inadl_6, Q8NI35 it was “below the threshold”; in the assay with DFNB31_1, Q9P202, “below the threshold”; with GRIP2_6, Q9C0E4, “below the threshold”. Also, the pKd entry in the assay with MAGI2_5, Q86UL8 was “below the threshold”; with TX1BP3, O14907 it was 3.61; with GORASP1, Q9BQQ3, “below the threshold”; with GIPC2, Q8TF65, “below the threshold”; with PDZRN3_1, Q9UPQ7, “below the threshold”; in the assay with DFNB31_3, Q9P202, “below the threshold”. Besides, the negative logarithm of the Kd (pKd) entry is “below the threshold” with RAPGEF6, Q8TEU7; “below the threshold” in the assay with GRIP1_4, Q9Y3R0; “below the threshold” with APBA2_1, Q99767; “below the threshold” with CASK, O14936; “below the threshold” with ARHGEF11, O15085; “below the threshold” with Inadl_1, Q8NI35.

In the case of SHSSKGETAV [FZD7, O75084], the pKd is 4.49 in the assay with SNTB1, Q13884; 5.09 in the assay with MAST2, Q6P0Q8; 3.96 with HTRA3, P83110; 3.8 with FRMPD2_1, Q68DX3; 4.11 in the assay with SCRIB_1, Q14160; “below the threshold” in the assay with LIN7B, Q9HAP6. For the same molecule, the pKd result is “below the threshold” with MPP7, Q5T2T1; 4.01 with DLG1_3, Q12959; “below the threshold” with GRIP1_5, Q9Y3R0; “below the threshold” in the assay with Inadl_6, Q8NI35; 3.65 with DFNB31_1, Q9P202; 3.58 with GRIP2_6, Q9C0E4. Besides, the negative-log Kd (pKd) entry with MAGI2_5, Q86UL8 is “below the threshold”; with TX1BP3, O14907, 3.89; in the assay with GORASP1, Q9BQQ3 it was 3.48; in the assay with GIPC2, Q8TF65 it was 3.62; in the assay with PDZRN3_1, Q9UPQ7, 4.51; in the assay with DFNB31_3, Q9P202 it was “below the threshold”. Moreover, the negative logarithm of the Kd (pKd) entry in the assay with RAPGEF6, Q8TEU7 is “below the threshold”; with GRIP1_4, Q9Y3R0, “below the threshold”; with APBA2_1, Q99767, “below the threshold”; with CASK, O14936, “below the threshold”; in the assay with ARHGEF11, O15085 it was 4.3; with Inadl_1, Q8NI35 it was “below the threshold”.
